In patent publication US8133680:

Assays:
[1] = molecular target: biotinylated bovine serum albumin (bovine) (UniProt P02769); experiment: ellipsometry after affinity microcontact printing from biotinylated BSA stamp (1 mg/ml, 5 h); control
[2] = molecular target: biotinylated bovine serum albumin (bovine) (UniProt P02769); experiment: ellipsometry after affinity microcontact printing; third use of the biotinylated BSA stamp; control
[3] = molecular target: biotinylated bovine serum albumin (bovine) (UniProt P02769); experiment: ellipsometry after affinity microcontact printing; second use of the biotinylated BSA stamp; control

Chain of UniProt P02769 (P02769 25-607 limits assumed): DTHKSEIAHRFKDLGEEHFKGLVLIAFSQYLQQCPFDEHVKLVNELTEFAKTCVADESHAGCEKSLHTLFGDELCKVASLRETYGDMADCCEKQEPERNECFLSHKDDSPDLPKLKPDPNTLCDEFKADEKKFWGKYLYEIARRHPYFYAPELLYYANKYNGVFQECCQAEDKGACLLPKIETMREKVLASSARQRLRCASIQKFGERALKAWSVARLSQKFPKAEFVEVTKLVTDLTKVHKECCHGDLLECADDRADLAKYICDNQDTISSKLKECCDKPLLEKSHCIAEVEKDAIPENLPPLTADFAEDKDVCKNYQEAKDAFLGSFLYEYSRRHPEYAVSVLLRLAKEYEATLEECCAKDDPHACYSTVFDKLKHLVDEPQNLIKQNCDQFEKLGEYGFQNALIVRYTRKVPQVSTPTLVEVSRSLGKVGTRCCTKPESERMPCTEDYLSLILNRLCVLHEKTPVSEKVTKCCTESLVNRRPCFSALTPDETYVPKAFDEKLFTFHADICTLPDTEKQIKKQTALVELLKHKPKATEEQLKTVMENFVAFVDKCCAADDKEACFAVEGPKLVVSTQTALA

- change in ellipsometric thickness [1]: 2.3 nm
- change in ellipsometric thickness [2]: 1.2 nm
- change in ellipsometric thickness [3]: 1.5 nm
Substance: anti-goat IgG (antibody)
